Data taken from the supplement of paper PMC9170038.

System: K4 kissing-loop RNA reporter
Assay: apparent KD of K4 kissing-loop reporter; higher = weaker reporter binding
Settings: Eterna round: R107
Experimental: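 RNA-MaP round R107: designed RNA switches with theophylline, tryptophan, arginine or FMN aptamers are transcribed on-chip within common flanks. They are titrated with a labelled K4 kissing-loop RNA reporter in RNA-MaP buffer (100 mM Tris pH 7.5, 80 mM KCl, 4 mM MgCl2), without ligand or with the indicated ligand. Median apparent KD per design.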

[1] = input ligand: theophylline 20 uM
[2] = input ligand: tryptophan 2.4 mM
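Note: bound reporter read as fluorescence of individual clusters on recovered sequencing chips by microscopy, with normalized cluster intensities fitted with a binding model.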

| Sequence | apparent KD of K4 kissing-loop reporter (input ligand: FMN 200 uM) [µM] | apparent KD of K4 kissing-loop reporter (input ligand: arginine 13.2 mM) [µM] | apparent KD of K4 kissing-loop reporter (input ligand: none) [µM] | apparent KD of K4 kissing-loop reporter [1] [µM] | apparent KD of K4 kissing-loop reporter [2] [µM] |
| --- | --- | --- | --- | --- | --- |
| GCAGUGAUGUUGCACGAGUAGGCUGGAGUACGAGGACCGGUACGGCCGCCACUCGUACGAAAGUCGCUAAUUUAUGGAAUGGUGA [#07 K4 Tryptophan A Same State] | 0.65 | 0.623 | 0.668 | 0.602 | 0.467 |
| GCAGUGAUGUUGCUGAUGUACAGUGGGAUACGAGGACCGGUACGGCCGCCACUCGUACAGAAUUUGUUAAUACAUCGAUAAGUGA [XV] | 0.377 | 0.36 | 0.526 | 0.436 | 0.522 |
| GCAGUGAUGUUGCUGGUGUGCAGUGGUAGUCGAGGACCGGUACGGCCGCCACUCGGUGAGAACCUGCUAAUACAUCGAUAAGUGA [XVIII] | 0.55 | 0.369 | 0.738 | 0.463 | 0.558 |
| GCAUAGGCCCAUCGGAAUUCGAGACCAGCACGAGGACCGGUACGGCCGCCACUCGUGCAGUGAUGUUGCACGAUUGGGAAACCGC [Beanveceti] | 0.115 | 0.101 | 0.101 | 0.104 | 0.111 |
| GCAUCCGAUGCAGGAUAUAGAUGAACGAGUGAUGUUUGGAAUUUAUGUCCAAAGCCUACGAUCAAACUAGAAGGGCAUCGGAUGC | 0.334 | 0.266 | 0.161 | 0.167 | 0.192 |
| GCAUGUAUGCGAGAGUGAUGUUCAUGGUUUCGAGGACCGGUACGGCCGCCACUCGCGAUCCGGCGUACAAUCGUGAAGUUAUCAU [theeternabot_sameState_KL_Trp_A_42] | 0.736 | 0.469 | 0.655 | 0.542 | 0.672 |
| GCCAGAGCGCGAAGGAGCGCCGUGACAGGUUACUGCCUUGGGCAGUGAUGUUGCUCAAUCUGGCAGGUAGGUCGCGUGCUCUGGC | 0.179 | 0.185 | 0.215 | 0.202 | 0.168 |
| GCCGUACGCAUGGAUACCAGCAUUUAUGACACACUGCUAGUGAUGUUAGCUAUGCGUAUAUGCCCUUGGCAGCCAUGCGUACGGC | 0.15 | 0.128 | 0.14 | 0.0874 | 0.133 |
| GCCGUACGCAUGGAUACCAGUCUUAGAGUGAUGUUCUAAACGAUUGCGCCUGGAUCAAUGGACCCUUGGCAGCCAUGCGUACGGC | 0.13 | 0.119 | 0.129 | 0.0924 | 0.154 |
| GCCGUAGAUGGAAGGAGCGACUUCAGCGGAUAAACGUGACAAUUGGAGUGAUGUUCGCAAGGUCAGGUAGGUCGCCAUCUACGGC | 0.819 | 0.211 | 0.26 | 0.274 | 0.313 |
| GCCGUAGAUGGAAGGAGCGUGAUAAGUGAAUUAUCCAGUGAUGUUGGAUCUUAGAUAGGAUCACAGGUAGGUCGCCAUCUACGGC | 0.244 | 0.181 | 0.217 | 0.297 | 0.192 |
| GCCGUAGAUUGAAGGAGCGGUAUGGGCGUUGGCUGAGUGAUGUUCAGGAAAAGUGGCUUCUACCAGGUAGGUCGCAAUCUACGGC | 0.133 | 0.11 | 0.13 | 0.139 | 0.109 |
| GCCGUAGAUUGAAGGAGCGUGGACCUAUCGCUUGAACAGUGAUGUUGUUUAUCUAGGAAGCCGCAGGUAGGUCGCAAUCUACGGC | 0.331 | 0.292 | 0.42 | 0.337 | 0.382 |
| GCCUAGGCUCGAAAGAGCCUAGGCUGGGCUCAGGAUAUCCGGAAACGGAGAAGGGAGGGACUAGUGAUGUUAGGGAUUCCCUAUG | 0.461 | 0.264 | 0.29 | 0.251 | 0.203 |
| GCCUGUGCACGAAGGAGCGCCGUGACAGGUUACUGCCUUGGGCAGUGAUGUUGCUCAAUCUGGCAGGUAGGUCGCGUGCACAGGC | 0.132 | 0.145 | 0.166 | 0.138 | 0.102 |
| GCCUUUGUACAGUCCGUUUGUCAUGUGGAUACCAGCAGGAUAGCUUGCCCUUGGCAGCCAUCCAUUUAAUGUAGUGAUGUUACGC [theeternabot_exclusion_KL_Theo_A_13] | 0.398 | 0.44 | 0.477 | 0.412 | 0.338 |
| GCGAAGAAGGUUGAUACCAGUCUUGCGUGUCAAGCGCCAGUGAUGUUGGGCCUGUAGAUCGACCCUUGGCAGCAACCUCGAAAUG [theeternabot_sameState_KL_Theo_B_28] | 0.836 | 0.563 | 0.844 | 0.748 | 0.655 |
| GCGCGCGGCGGAGGAUAUAGCAGGUGAUCCGAGAAAGUGAGUGAUGUUUACGGAGAUGAUGAUAUGUUAGAAGGCCGCCGCGCGC [abcdefghijklmnopqrstuv] | 0.515 | 0.416 | 0.437 | 0.425 | 0.558 |
| GCGCGGCCCAGUGAUGUUGGGCCUCGGAGACGAGGACCGGUACGGCCGCCACUCGUCCGCGCAGCUGAGGCAAAAGCCUCGGCAA [Omei KL Tryp A SS B v6] | 0.207 | 0.19 | 0.228 | 0.187 | 0.107 |
